Earlier results, collected in article PMC12114883.

Target: CLV1 (Arabidopsis thaliana) (UniProt Q9SYQ8)
Sequence of UniProt Q9SYQ8 (Q9SYQ8 25-638): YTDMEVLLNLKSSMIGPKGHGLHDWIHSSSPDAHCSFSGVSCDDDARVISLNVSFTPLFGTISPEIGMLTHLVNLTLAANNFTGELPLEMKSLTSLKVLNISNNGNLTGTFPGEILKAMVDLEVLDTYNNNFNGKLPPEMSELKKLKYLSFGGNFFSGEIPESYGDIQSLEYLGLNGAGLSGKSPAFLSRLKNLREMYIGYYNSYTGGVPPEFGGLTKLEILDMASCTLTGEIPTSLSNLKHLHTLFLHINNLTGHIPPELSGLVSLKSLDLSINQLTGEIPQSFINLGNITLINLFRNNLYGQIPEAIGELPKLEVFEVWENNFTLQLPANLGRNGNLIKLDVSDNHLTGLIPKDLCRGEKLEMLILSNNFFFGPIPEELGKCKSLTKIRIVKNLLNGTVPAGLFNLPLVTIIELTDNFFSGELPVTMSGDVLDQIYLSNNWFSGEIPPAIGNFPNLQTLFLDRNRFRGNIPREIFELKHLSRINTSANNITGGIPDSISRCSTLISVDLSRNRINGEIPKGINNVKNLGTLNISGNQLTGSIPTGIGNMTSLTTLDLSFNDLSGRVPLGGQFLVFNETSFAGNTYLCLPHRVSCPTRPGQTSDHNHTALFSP

For CLV3 (from UniProt Q9XF04), the Kd is given as 17.5 nM.
